Key:
[1] = in vivo; parameters: species or system Sprague Dawley rats; conditions: Sprague Dawley, rat
Description: (§1) Plasma concentration-time profiles were analysed in C57BL6J mice and Sprague Dawley rats by a non-compartmental method using sparse sampling in Pharsight Phoenix WinNonLin v.6.4 software, and the resulting terminal half-life (T1/2), maximum plasma concentration (Cmax), time for maximum plasma concentration (Tmax), and AUC from zero to last valid measurable concentration-time point (AUC0-t) were determined.

[2] = tested on: C57BL/6J DIO mice; experiment: Urinary albumin:creatinine ratio in DIO mice (Extended Data Fig. 2g); format: in vivo, mouse; conditions: 14-day treatment, 50 nmol kg−1 per day, in words
Text: Frozen urine samples from heterozygous GIPR^dn mice in a CD1 background (n = 3) served as positive controls. […] For each treatment group, uACR was computed as a ratio of urinary albumin (mg ml^−1) to urinary creatinine (mg ml^−1).

[3] = in vivo; parameters: species or system C57BL6J mice; conditions: mouse
Description: as §1

[4] = 100 nmol/kg, concentration (PK, Extended Data Fig. 1c)
[5] = male, 100 nmol/kg, concentration (PK, Extended Data Fig. 1c)
[6] = C57BL6J, 100 nmol/kg, concentration (PK, Extended Data Fig. 1c)
[7] = male, C57BL6/J, 100 nmol/kg, concentration (PK, Extended Data Fig. 1c)

| SMILES | level at time molar at 4 h [1, 4] | AUC(0-t) ([1]; male) | Cmax ([1]; male) | half-life ([1]; male) | level at time molar at 10 min [1, 5] | level at time molar at 1 h [1, 5] | level at time molar at 2 h [1, 5] | level at time molar at 4 h [1, 5] | urinary albumin:creatinine ratio [2] | level at time molar at 10 min [3, 6] | level at time molar at 0.5 h [3, 6] | level at time molar at 1 h [3, 6] | AUC(0-t) ([3]; male, C57BL6/J) | Cmax ([3]; male, C57BL6/J) | half-life ([3]; male, C57BL6/J) | level at time molar at 2 h [3, 7] | level at time molar at 4 h [3, 7] | level at time molar at 0.5 h [1, 5] |
| --- | --- | --- | --- | --- | --- | --- | --- | --- | --- | --- | --- | --- | --- | --- | --- | --- | --- | --- |
| CCO[C@@H](Cc1ccc(OCCc2ccc(OS(C)(=O)=O)cc2)cc1)C(=O)N[C@@H](CCC(=O)NCCCC[C@H](NC(=O)[C@H](CO)NC(=O)[C@@H]1CCCN1C(=O)[C@@H]1CCCN1C(=O)[C@@H]1CCCN1C(=O)[C@H](C)NC(=O)CNC(=O)[C@H](CO)NC(=O)[C@H](CO)NC(=O)[C@@H]1CCCN1C(=O)CNC(=O)CNC(=O)[C@H](CCCCN)NC(=O)[C@@H](NC(=O)[C@H](CC(C)C)NC(=O)[C@H](Cc1c[nH]c2ccccc12)NC(=O)[C@H](C)NC(=O)[C@@H](NC(=O)[C@H](Cc1ccccc1)NC(=O)[C@H](CCC(=O)O)NC(=O)[C@H](CCCCN)NC(=O)[C@H](C)NC(=O)[C@H](C)NC(=O)[C@H](CCC(N)=O)NC(=O)[C@H](CCC(=O)O)NC(=O)[C@H](CCC(=O)O)NC(=O)[C@H](CC(C)C)NC(=O)[C@H](Cc1ccc(O)cc1)NC(=O)[C@H](CO)NC(=O)[C@H](CO)NC(=O)[C@@H](NC(=O)[C@H](CC(=O)O)NC(=O)[C@H](CO)NC(=O)[C@@H](NC(=O)[C@H](Cc1ccccc1)NC(=O)[C@@H](NC(=O)CNC(=O)[C@H](CCC(=O)O)NC(=O)C(C)(C)NC(=O)[C@@H](N)Cc1c[nH]cn1)[C@@H](C)O)[C@@H](C)O)C(C)C)[C@@H](C)CC)C(C)C)C(N)=O)C(=O)O [GLP-1RA/tesaglitazar, GLP-1 Aib2 Glu16 CEX Lys40/tesaglitazar conjugate] | 20.5 nM | 0.174 µM·h | 37.5 nM | 2.54 h | 41.7 nM | 40.3 nM | 26.8 nM | 21.2 nM | likewise not changed | 246 nM | 314 nM | 131 nM | 0.505 µM·h | 278 nM | 1.1 h | 87.6 nM | 21.6 nM |  |
| CC[C@H](C)[C@H](NC(=O)[C@H](Cc1ccccc1)NC(=O)[C@H](CCC(=O)O)NC(=O)[C@H](CCCCN)NC(=O)[C@H](C)NC(=O)[C@H](C)NC(=O)[C@H](CCC(N)=O)NC(=O)[C@H](CCC(=O)O)NC(=O)[C@H](CCC(=O)O)NC(=O)[C@H](CC(C)C)NC(=O)[C@H](Cc1ccc(O)cc1)NC(=O)[C@H](CO)NC(=O)[C@H](CO)NC(=O)[C@@H](NC(=O)[C@H](CC(=O)O)NC(=O)[C@H](CO)NC(=O)[C@@H](NC(=O)[C@H](Cc1ccccc1)NC(=O)[C@@H](NC(=O)CNC(=O)[C@H](CCC(=O)O)NC(=O)C(C)(C)NC(=O)[C@@H](N)Cc1c[nH]cn1)[C@@H](C)O)[C@@H](C)O)C(C)C)C(=O)N[C@@H](C)C(=O)N[C@@H](Cc1c[nH]c2ccccc12)C(=O)N[C@@H](CC(C)C)C(=O)N[C@H](C(=O)N[C@@H](CCCCN)C(=O)NCC(=O)NCC(=O)N1CCC[C@H]1C(=O)N[C@@H](CO)C(=O)N[C@@H](CO)C(=O)NCC(=O)N[C@@H](C)C(=O)N1CCC[C@H]1C(=O)N1CCC[C@H]1C(=O)N1CCC[C@H]1C(=O)N[C@@H](CO)C(=O)N[C@@H](CCCCN)C(N)=O)C(C)C [GLP-1RA, GLP-1 Aib2 Glu16 CEX Lys40] | 10.7 nM | 0.131 µM·h | 41.3 nM | 2.13 h |  |  | 26.1 nM | 15.8 nM |  |  | 435 nM | 219 nM | 0.399 µM·h | 361 nM |  |  |  | 30.7 nM |
